The test system of one data set is hnRNP U ΔSAP (rat). Kind of data set: EMSA. To be noted: C50, competitive with equimolar vector, 5 mM Mg2+, 10 mM MgCl2 in gel, EMSA: 35 mM Tris-HCl pH 8.0, 72 mM KCl, 5 mM MgCl2, 5 mM DTT, 5 mM spermidine, 50 ug/ml BSA, 37 C, on-bead: 50 mM Tris-HCl pH 8.0, 120 mM KCl.
Another data set has as its system hnRNP U WT (SP120) (rat). Kind of data set: EMSA. To be noted: C50, competitive with equimolar vector, 5 mM Mg2+, 10 mM MgCl2 in gel, EMSA: 35 mM Tris-HCl pH 8.0, 72 mM KCl, 5 mM MgCl2, 5 mM DTT, 5 mM spermidine, 50 ug/ml BSA, 37 C, on-bead: 50 mM Tris-HCl pH 8.0, 120 mM KCl. (In general: In EMSA bound probe runs differently from free probe, usually more slowly.)
Another data set relates to GST-RG (rat). The experiment in a line: on-bead pull-down. The note with it: Hill 1.8, 100 ng pBS/FTZ, 2 ul beads, 10 mM Mg2+, EMSA: 35 mM Tris-HCl pH 8.0, 72 mM KCl, 5 mM MgCl2, 5 mM DTT, 5 mM spermidine, 50 ug/ml BSA, 37 C, on-bead: 50 mM Tris-HCl pH 8.0, 120 mM KCl, 10 mM MgCl2 ….
A further data set relates to GST-SAP-RG (rat). The experiment in a line: on-bead pull-down. The note with it: Hill 2.5; 100 ng pBS/FTZ, 10 mM Mg2+; unit implied by comparison; EMSA: 35 mM Tris-HCl pH 8.0, 72 mM KCl, 5 mM MgCl2, 5 mM DTT, 5 mM spermidine, 50 ug/ml BSA, 37 C; on-bead: 50 mM Tris-HCl pH 8.0, 120 mM KCl, 10 mM MgCl2 ….
A further data set relates to GST-SAP (rat). Kind of data set: on-bead pull-down. The note with it: Hill 4.6, 100 ng pBS/FTZ, 2 ul beads, 10 mM Mg2+, EMSA: 35 mM Tris-HCl pH 8.0, 72 mM KCl, 5 mM MgCl2, 5 mM DTT, 5 mM spermidine, 50 ug/ml BSA, 37 C, on-bead: 50 mM Tris-HCl pH 8.0, 120 mM KCl, 10 mM MgCl2 ….

On to FTZ S/MAR insert, for which the K half in the data set with hnRNP U ΔSAP (rat) stood at 32 nM; with hnRNP U WT (SP120) (rat), 14 nM. In addition, the half-saturation protein amount (pmol (on beads)) was 13 in the data set on GST-RG (rat) and 22.5 with GST-SAP (rat). Further, the Kd (pmol (on beads)) in the data set with GST-SAP-RG (rat) was 6.7.

Values taken from article PMC10403129.
